Measurements taken from PMC6437151.

What was measured:
FBXW2 [1] = molecular target: FBXW2 (UniProt Q9UKT8); assay: co-transfection, HA IP, immunoblot; settings: reference: wild type; sites S552
FBXW2 [2] = molecular target: FBXW2 (UniProt Q9UKT8); assay: IP with FBXW2 antibody, immunoblot; settings: reference: wild type; sites S552

In the case of β-catenin (from UniProt P35222) S552A, the “binding against the reference” value (FBXW2 [1]) is reported as “lost” and the “binding against the reference” value (FBXW2 [2]) is reported as “lost”.
